Experimental data taken from patent publication US11324803B2, “Methods and compositions for treatment of Gaucher Disease via modulation of C5a receptor” (Children's Hospital Medical Center, priority 2015, dated 2022).

What was measured:
mouse C5aR1 = target: T1, mouse C5aR1 (Mus musculus, UniProt P30993); conditions: cited from earlier work
T1 sequence (P30993 1-351): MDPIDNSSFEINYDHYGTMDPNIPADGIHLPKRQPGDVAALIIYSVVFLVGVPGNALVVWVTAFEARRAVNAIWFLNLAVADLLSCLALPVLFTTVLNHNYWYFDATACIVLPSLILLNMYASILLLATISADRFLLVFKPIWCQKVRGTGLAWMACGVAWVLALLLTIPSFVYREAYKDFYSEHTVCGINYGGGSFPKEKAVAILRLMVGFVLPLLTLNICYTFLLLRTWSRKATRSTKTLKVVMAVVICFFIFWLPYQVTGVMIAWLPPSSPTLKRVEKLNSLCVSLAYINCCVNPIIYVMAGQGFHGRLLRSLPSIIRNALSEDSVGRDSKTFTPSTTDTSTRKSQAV

C5aR1 = target: T2, C5aR1 (Mus musculus, UniProt P30993); assay: C5aR antagonist A8^Δ71-73 (C5aRA) i.p. treatment of Gaucher disease-prone 9V/null mice; type: in vivo; conditions: for pro-inflammatory cytokine (and chemokine) production: DCs and T cells of C5aRA-treated 9V/null mice
T2 construct: endogenous in cells; host or cells: WT and 9V/null mice (mixed FVB/C57BL 6J/129SvEvBrd background), in vivo
T2 sequence (P30993 1-351): T1 sequence (P30993 1-351)
Text: Sera from human patients with Gaucher disease (n=10) and healthy volunteers (n=15) were from the freezer and de-identified. Human patients with Gaucher disease were diagnosed at Cincinnati Children's Hospital Medical Center (CCHMC). […] The study was approved by the ethics committee at CCHMC. In vivo C5aR1 deficiency or blockade in 9V/null mice and in a CBE-induced mouse model of Gaucher disease. To assess the impact of genetic or pharmacological targeting of C5aR1 on the inflammatory response in Gaucher disease, WT (n=10) and C5aR1^−/− mice (n=10) were treated with conduritol B epoxide (CBE), which is an irreversible inhibitor of acid β-glucosidase^24. More specifically, both mouse strains were injected intraperitoneally (i.p.) with 100 mg CBE/kg body weight or vehicle (PBS)/day for up to 60 days, which was the termination point of these experiments. After 60 days of the indicated treatment with CBE, immune cells (MΦs, DCs, and T cells) were purified from lung of these mouse strains and used for measurement of GC, costimulatory molecules, and several of the pro-inflammatory cytokines. In additional experiments, WT (n=15) or 9V/null mice (n=15) were injected with 100 μl of the C5aR antagonist A8^Δ71-73 (i.p. 0.5 mg/kg) or vehicle (100 μl, PBS) on five consecutive days. Five days after the final C5aRA treatment, liver, spleen and lung were separated and measured for GC accumulation. Further, DCs and CD4^+ T cells were purified from the lung of the indicated mouse strains and measured for costimulatory molecule expression and the production of pro-inflammatory cytokines. Preparation of tissue cells. Liver, spleen, lung and BM were harvested aseptically. Single cell suspensions from liver and lung were obtained from minced pieces that were treated with Liberase Cl (0.5 mg/mL) and DNase (0.5 mg/mL) in RPMI (45 min, 37° C.). Single cell suspensions from spleen were obtained by grinding and then filtration through a 70-micron cell strainer. […] For BM cells, femurs, tibias and humeri were flushed with sterile phosphate buffered saline (PBS), followed by RBC lysis (155 mM NH4Cl, 10 mM NaHCO3, 0.1 mM EDTA), passage through a strainer. Cells were then pelleted by centrifugation at 350×g. Viable cells were counted using a Neubauer chamber and trypan blue exclusion. DCs, MΦs, and CD4^+ T lymphocytes were purified from single cell suspensions of liver, spleen, and lung using CD11c, CD11b, and CD4 (L3T4) microbeads according to the manufacturer's protocol. The purity of the cells was ˜90%-95%.
Tissue cells were suspended in PBS containing 1% BSA. After incubation (15 min, 4° C.) with Fc©R-blocking antibody 2.4G2, cells were stained (45 min, 4° C.) with the following antibodies to identify APCs and T cell: CD4 for T cells; CD11b and F4/80 for Ms; and CD11b and CD11c for DCs. Cells were also stained with the respective isotype antibodies as controls. MΦs were first identified by their typical FSC/SSC pattern, F4/80 and CD11 expression. DCs were identified as CD11c^+CD11b^+ cells. Further, CD40, CD80 CD86 and C5aR1 expression was determined in tissue DCs. T cells were first characterized by their FSC/SSC pattern and CD3 staining. CD3^+T cells were further stained for CD4, CD40L and CD69 expression. A total of […] were acquired for each cell type isolated from the different organs. Specific surface expression was assessed relative to the expression of the corresponding isotype control antibody. Fortessa-I, Fortessa-II, and LSRII flow cytometers were used to characterize the cells. FCS express (version 4; DeNovo Software) was used to analyze the data.
Lipids were extracted from tissues (5 mg; liver, spleen, and lung), purified immune cells, (e.g., MΦ, DCs, and CD4^+T) and GC-specific IgG2a by chloroform and methanol^2, 25, 26. […]

mouse C5aR2 (C5L2) = target: T3, mouse C5aR2 (C5L2) (Mus musculus, UniProt Q8BW93); conditions: cited from earlier work
T3 sequence (Q8BW93 1-344): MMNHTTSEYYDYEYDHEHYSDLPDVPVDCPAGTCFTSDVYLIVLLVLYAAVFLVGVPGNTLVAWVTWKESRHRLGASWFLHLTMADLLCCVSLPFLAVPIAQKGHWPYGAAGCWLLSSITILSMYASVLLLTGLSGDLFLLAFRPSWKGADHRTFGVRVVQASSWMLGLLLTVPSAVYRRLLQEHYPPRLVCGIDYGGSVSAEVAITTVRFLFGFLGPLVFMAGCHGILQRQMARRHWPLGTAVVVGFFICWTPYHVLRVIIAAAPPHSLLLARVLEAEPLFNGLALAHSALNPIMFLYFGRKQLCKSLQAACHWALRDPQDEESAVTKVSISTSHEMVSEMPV

[1] = C5aRA-treated 9V/null mice, i.p. 0.5 mg/kg on five consecutive days, CD68+ immunohistochemistry
[2] = C5aRA-treated vs vehicle-injected 9V/null mice, ESI-LC-MS/MS
[3] = DC/CD4+ T cell co-culture 48 h from C5aRA-treated mice, ELISA
[4] = in response to C5aRA treatment, flow cytometry

B1: Thr Leu Gln Lys Lys Ile Glu Glu Ile Ala Ala Lys Tyr Lys His Ser Val Val Lys Lys Cys Cys Tyr Asp Gly Ala Ala Val Asn Asn Asp Glu Thr Cys Glu Gln Arg Ala Ala Arg Ile Ser Leu Gly Pro Arg Cys Ile Lys Ala … (protein)
chain: TLQKKIEEIAAKYKHSVVKKCCYDGAAVNNDETCEQRAARISLGPRCIKAFTECCVVASQLRANISFKRS
modifications: mutant C5a-(1-66, Cys27A1a) -A8B-Del. 71-73 of human C5a
notes: positions 27 and 68-71 of human C5a mutated and positions 72-74 deleted
- affinity to bind mouse C5aR1 (mouse C5aR1): high affinity
- co-stimulatory molecule expression in DCs and CD4+ T cells (C5aR1; C5aRA-treated 9V/null mice): marked reduction
- MΦ infiltration of the liver (C5aR1; [1]): substantially reduced
- MΦ infiltration of the lung (C5aR1; [1]): substantially reduced
- MΦ infiltration of the spleen (C5aR1; [1]): substantially reduced
- co-stimulatory molecule expression in DCs and CD4+ T cells (C5aR1; C5aRA-treated 9V/null mice, listed as C5aR antagonist A8^Δ71-73): decreased levels
- GCs (C5aR1; C5aRA-treated 9V/null mice, liver and spleen (FIG. 12)): marked reduction
- GC storage in liver (C5aR1; [2]): significantly decreased
- GC storage in lung (C5aR1; [2]): significantly decreased
- GC storage in spleen (C5aR1; [2]): significantly decreased
- IFN-γ production (C5aR1; [3]): markedly decreased
- IL-1 production (C5aR1; [3]): markedly decreased
- IL-6 production (C5aR1; [3]): markedly decreased
- IL-17 production (C5aR1; [3]): markedly decreased
- TNF-α production (C5aR1; [3]): markedly decreased
- pro-inflammatory cytokine (and chemokine) production (C5aR1): marked reduction
- pro-inflammatory cytokine (and chemokine) production (C5aR1; listed as C5aR antagonist A8^Δ71-73): less
- GC accumulation in MΦs (C5aR1; MΦs of treated 9V/null mice): marked reduction
- CD40L expression in CD4+ T cells (C5aR1; [4]): significantly reduced
- CD40 expression in pulmonary DCs (C5aR1; [4]): significantly reduced
- CD69 expression in CD4+ T cells (C5aR1; [4]): significantly reduced
- CD80 expression in pulmonary DCs (C5aR1; [4]): significantly reduced
- CD86 expression in pulmonary DCs (C5aR1; [4]): significantly reduced
- MΦs, DC and T cells mediated immune inflammation (C5aR1; mouse model of Gaucher disease, i.p.): significantly reduces
- loss of CD41+ platelets (C5aR1; treated 9V/null mice): decreased loss
- loss of Ter119+ RBCs (C5aR1; treated 9V/null mice): decreased loss
- affinity to bind mouse C5aR2 (C5L2) (mouse C5aR2 (C5L2)): high affinity
